Tests used:
[1] = system: GFP-14-3-3β and its binding proteins; experiment: GFP-14-3-3β co-IP with LC-MS/MS label-free quantification, untreated versus PP1c-treated; design: species or system human; settings: label-free quantification, 3 replicates each
GFP-14-3-3β = GFP-14-3-3β co-IP with LC-MS/MS, untreated GFP-14-3-3β versus GFP control (14-3-3 interactome); format: binding, human; settings: label-free quantification, 3 replicates each
[2] = GFP-14-3-3β co-IP LC-MS/MS, PP1 vs untreated, student's t-test
[3] = GFP-14-3-3β co-IP LC-MS/MS, untreated vs GFP, student's t-test

| Molecule | Difference (log2), PP1 vs untreated [1, 2] | Difference (log2), untreated vs GFP (GFP-14-3-3β; [3]) | Difference (log2), PP1 vs untreated ([1]; log2 difference, pairwise comparison PP1 vs untreated) | Difference (log2), untreated vs GFP (GFP-14-3-3β; log2 difference, pairwise comparison untreated vs GFP) |
| --- | --- | --- | --- | --- |
| DNTTIP2 (protein, UniProt Q5QJE6 1-756, looked up) Deoxynucleotidyltransferase …: MVVTRSARAKASIQAASAESSGQKSFAANGIQAHPESSTGSDARTTAESQTTGKQSLIPRTPKARKRKSRTTGSLPKGTEPSTDGETSEAESNYSVSEHHDTILRVTRRRQILIACSPVSSVRKKPKVTPTKESYTEEIVSEAESHVSGISRIVLPTEKTTGARRSKAKSLTDPSQESHTEAISDAETSSSDISFSGIATRRTRSMQRKLKAQTEKKDSKIVPGNEKQIVGTPVNSEDSDTRQTSHLQARSLSEINKPNFYNNDFDDDFSHRSSENILTVHEQANVESLKETKQNCKDLDEDANGITDEGKEINEKSSQLKNLSELQDTSLQQLVSQRHSTPQNKNAVSVHSNLNSEAVMKSLTQTFATVEVGRWNNNKKSPIKASDLTKFGDCGGSDDEEESTVISVSEDMNSEGNVDFECDTKLYTSAPNTSQGKDNSVLLVLSSDESQQSENSENEEDTLCFVENSGQRESLSGDTGSLSCDNALFVIDTTPGMSADKNFYLEEEDKASEVAIEEEKEEEEDEKSEEDSSDHDENEDEFSDEEDFLNSTKAKLLKLTSSSIDPGLSIKQLGGLYINFNADKLQSNKRTLTQIKEKKKNELLQKAVITPDFEKNHCVPPYSESKYQLQKKRRKERQKTAGDGWFGMKAPEMTNELKNDLKALKMRASMDPKRFYKKNDRDGFPKYFQIGTIVDNPADFYHSRIPKKQRKRTIVEELLADSEFRRYNRRKYSEIMAEKAANAAGKKFRKKKKFRN | -0.5492 log2 | 2.447 log2 |  |  |
| DHX15 (protein, UniProt O43143 1-795, looked up) ATP-dependent RNA helicase …: MSKRHRLDLGEDYPSGKKRAGTDGKDRDRDRDREDRSKDRDRERDRGDREREREKEKEKELRASTNAMLISAGLPPLKASHSAHSTHSAHSTHSTHSAHSTHAGHAGHTSLPQCINPFTNLPHTPRYYDILKKRLQLPVWEYKDRFTDILVRHQSFVLVGETGSGKTTQIPQWCVEYMRSLPGPKRGVACTQPRRVAAMSVAQRVADEMDVMLGQEVGYSIRFEDCSSAKTILKYMTDGMLLREAMNDPLLERYGVIILDEAHERTLATDILMGVLKEVVRQRSDLKVIVMSATLDAGKFQIYFDNCPLLTIPGRTHPVEIFYTPEPERDYLEAAIRTVIQIHMCEEEEGDLLLFLTGQEEIDEACKRIKREVDDLGPEVGDIKIIPLYSTLPPQQQQRIFEPPPPKKQNGAIGRKVVVSTNIAETSLTIDGVVFVIDPGFAKQKVYNPRIRVESLLVTAISKASAQQRAGRAGRTRPGKCFRLYTEKAYKTEMQDNTYPEILRSNLGSVVLQLKKLGIDDLVHFDFMDPPAPETLMRALELLNYLAALNDDGDLTELGSMMAEFPLDPQLAKMVIASCDYNCSNEVLSITAMLSVPQCFVRPTEAKKAADEAKMRFAHIDGDHLTLLNVYHAFKQNHESVQWCYDNFINYRSLMSADNVRQQLSRIMDRFNLPRRSTDFTSRDYYINIRKALVTGYFMQVAHLERTGHYLTVKDNQVVQLHPSTVLDHKPEWVLYNEFVLTTKNYIRTCTDIKPEWLVKIAPQYYDMSNFPQCEAKRQLDRIIAKLQSKEYSQY | -0.5557 log2 | 1.871 log2 |  |  |
| MAP4 (protein, UniProt P27816 2-1152, looked up) Microtubule-associated …: ADLSLADALTEPSPDIEGEIKRDFIATLEAEAFDDVVGETVGKTDYIPLLDVDEKTGNSESKKKPCSETSQIEDTPSSKPTLLANGGHGVEGSDTTGSPTEFLEEKMAYQEYPNSQNWPEDTNFCFQPEQVVDPIQTDPFKMYHDDDLADLVFPSSATADTSIFAGQNDPLKDSYGMSPCNTAVVPQGWSVEALNSPHSESFVSPEAVAEPPQPTAVPLELAKEIEMASEERPPAQALEIMMGLKTTDMAPSKETEMALAKDMALATKTEVALAKDMESPTKLDVTLAKDMQPSMESDMALVKDMELPTEKEVALVKDVRWPTETDVSSAKNVVLPTETEVAPAKDVTLLKETERASPIKMDLAPSKDMGPPKENKKETERASPIKMDLAPSKDMGPPKENKIVPAKDLVLLSEIEVAQANDIISSTEISSAEKVALSSETEVALARDMTLPPETNVILTKDKALPLEAEVAPVKDMAQLPETEIAPAKDVAPSTVKEVGLLKDMSPLSETEMALGKDVTPPPETEVVLIKNVCLPPEMEVALTEDQVPALKTEAPLAKDGVLTLANNVTPAKDVPPLSETEATPVPIKDMEIAQTQKGISEDSHLESLQDVGQSAAPTFMISPETVTGTGKKCSLPAEEDSVLEKLGERKPCNSQPSELSSETSGIARPEEGRPVVSGTGNDITTPPNKELPPSPEKKTKPLATTQPAKTSTSKAKTQPTSLPKQPAPTTIGGLNKKPMSLASGLVPAAPPKRPAVASARPSILPSKDVKPKPIADAKAPEKRASPSKPASAPASRSGSKSTQTVAKTTTAAAVASTGPSSRSPSTLLPKKPTAIKTEGKPAEVKKMTAKSVPADLSRPKSTSTSSMKKTTTLSGTAPAAGVVPSRVKATPMPSRPSTTPFIDKKPTSAKPSSTTPRLSRLATNTSAPDLKNVRSKVGSTENIKHQPGGGRAKVEKKTEAAATTRKPESNAVTKTAGPIASAQKQPAGKVQIVSKKVSYSHIQSKCGSKDNIKHVPGGGNVQIQNKKVDISKVSSKCGSKANIKHKPGGGDVKIESQKLNFKEKAQAKVGSLDNVGHLPAGGAVKTEGGGSEAPLCPGPPAGEEPAISEAAPEAGAPTSASGLNGHPTLSGGGDQREAQTLDSQIQETSI | -0.5793 log2 | 0.9373 log2 |  |  |
| SPATS2 (protein, UniProt Q86XZ4 1-545, looked up) Spermatogenesis-associated …: MSRKQNQKDSSGFIFDLQSNTVLAQGGAFENMKEKINAVRAIVPNKSNNEIILVLQHFDNCVDKTVQAFMEGSASEVLKEWTVTGKKKNKKKKNKPKPAAEPSNGIPDSSKSVSIQEEQSAPSSEKGGMNGYHVNGAINDTESVDSLSEGLETLSIDARELEDPESAMLDTLDRTGSMLQNGVSDFETKSLTMHSIHNSQQPRNAAKSLSRPTTETQFSNMGMEDVPLATSKKLSSNIEKSVKDLQRCTVSLARYRVVVKEEMDASIKKMKQAFAELESCLMDREVALLAEMDKVKAEAMEILLSRQKKAELLKKMTHVAVQMSEQQLVELRADIKHFVSERKYDEDLGRVARFTCDVETLKKSIDSFGQVSHPKNSYSTRSRCSSVTSVSLSSPSDASAASSSTCASPPSLTSANKKNFAPGETPAAIANSSGQPYQPLREVLPGNRRGGQGYRPQGQKSNDPMNQGRHDSMGRYRNSSWYSSGSRYQSAPSQAPGNTIERGQTHSAGTNGTGVSMEPSPPTPSFKKGLPQRKPRTSQTEAVNS | -0.5886 log2 | 1.275 log2 |  |  |
| BRIX1 (protein, UniProt Q8TDN6 1-353, looked up) Ribosome biogenesis protein …: MAATKRKRRGGFAVQAKKPKRNEIDAEPPAKRHATAEEVEEEERDRIPGPVCKGKWKNKERILIFSSRGINFRTRHLMQDLRMLMPHSKADTKMDRKDKLFVINEVCEMKNCNKCIYFEAKKKQDLYMWLSNSPHGPSAKFLVQNIHTLAELKMTGNCLKGSRPLLSFDPAFDELPHYALLKELLIQIFSTPRYHPKSQPFVDHVFTFTILDNRIWFRNFQIIEEDAALVEIGPRFVLNLIKIFQGSFGGPTLYENPHYQSPNMHRRVIRSITAAKYREKQQVKDVQKLRKKEPKTLLPHDPTADVFVTPAEEKPIEIQWVKPEPKVDLKARKKRIYKRQRKMKQRMDSGKTK | -0.6423 log2 | 1.65 log2 |  |  |
| DCD (protein, UniProt P81605 20-110, looked up) Dermcidin: YDPEAASAPGSGNPCHEASAAQKENAGEDPGLARQAPKPRKQRSSLLEKGLDGAKKAVGGLGKLGKDAVEDLESVGKGAVHDVKDVLDSVL | -0.6713 log2 | -1.7359 log2 |  |  |
| VAPA (protein, UniProt Q9P0L0 2-249, looked up) Vesicle-associated membrane …: ASASGAMAKHEQILVLDPPTDLKFKGPFTDVVTTNLKLRNPSDRKVCFKVKTTAPRRYCVRPNSGIIDPGSTVTVSVMLQPFDYDPNEKSKHKFMVQTIFAPPNTSDMEAVWKEAKPDELMDSKLRCVFEMPNENDKLNDMEPSKAVPLNASKQDGPMPKPHSVSLNDTETRKLMEECKRLQGEMMKLSEENRHLRDEGLRLRKVAHSDKPGSTSTASFRDNVTSPLPSLLVVIAAIFIGFFLGKFIL |  |  | 1.6514 | -1.034 |
| SRPRB (protein, UniProt Q9Y5M8 1-271, looked up) Signal recognition particle …: MASADSRRVADGGGAGGTFQPYLDTLRQELQQTDPTLLSVVVAVLAVLLTLVFWKLIRSRRSSQRAVLLVGLCDSGKTLLFVRLLTGLYRDTQTSITDSCAVYRVNNNRGNSLTLIDLPGHESLRLQFLERFKSSARAIVFVVDSAAFQREVKDVAEFLYQVLIDSMGLKNTPSFLIACNKQDIAMAKSAKLIQQQLEKELNTLRVTRSAAPSTLDSSSTAPAQLGKKGKEFEFSQLPLKVEFLECSAKGGRGDVGSADIQDLEKWLAKIA | -0.6831 log2 | 1.397 log2 |  |  |
| HNRNPC (protein, UniProt P07910 2-306, looked up) Heterogeneous nuclear …: ASNVTNKTDPRSMNSRVFIGNLNTLVVKKSDVEAIFSKYGKIVGCSVHKGFAFVQYVNERNARAAVAGEDGRMIAGQVLDINLAAEPKVNRGKAGVKRSAAEMYGSVTEHPSPSPLLSSSFDLDYDFQRDYYDRMYSYPARVPPPPPIARAVVPSKRQRVSGNTSRRGKSGFNSKSGQRGSSKSGKLKGDDLQAIKKELTQIKQKVDSLLENLEKIEKEQSKQAVEMKNDKSEEEQSSSSVKKDETNVKMESEGGADDSAEEGDLLDDDDNEDRGDDQLELIKDDEKEAEEGEDDRDSANGEDDS | -0.69 log2 | 1.297 log2 |  |  |
| GNAS (protein, UniProt P63092 2-394, looked up) Guanine nucleotide-binding …: GCLGNSKTEDQRNEEKAQREANKKIEKQLQKDKQVYRATHRLLLLGAGESGKSTIVKQMRILHVNGFNGEGGEEDPQAARSNSDGEKATKVQDIKNNLKEAIETIVAAMSNLVPPVELANPENQFRVDYILSVMNVPDFDFPPEFYEHAKALWEDEGVRACYERSNEYQLIDCAQYFLDKIDVIKQADYVPSDQDLLRCRVLTSGIFETKFQVDKVNFHMFDVGGQRDERRKWIQCFNDVTAIIFVVASSSYNMVIREDNQTNRLQEALNLFKSIWNNRWLRTISVILFLNKQDLLAEKVLAGKSKIEDYFPEFARYTTPEDATPEPGEDPRVTRAKYFIRDEFLRISTASGDGRHYCYPHFTCAVDTENIRRVFNDCRDIIQRMHLRQYELL | -0.7154 log2 | 0.1054 log2 |  |  |
| BASP1 (protein, UniProt P80723 2-227, looked up) Brain acid soluble protein 1: GGKLSKKKKGYNVNDEKAKEKDKKAEGAATEEEGTPKESEPQAAAEPAEAKEGKEKPDQDAEGKAEEKEGEKDAAAAKEEAPKAEPEKTEGAAEAKAEPPKAPEQEQAAPGPAAGGEAPKAAEAAAAPAESAAPAAGEEPSKEEGEPKKTEAPAAPAAQETKSDGAPASDSKPGSSEAAPSSKETPAATEAPSSTPKAQGPAASAEEPKPVEAPAANSDQTVTVKE | -0.7159 log2 | -1.2737 log2 |  |  |

From publication PMC7367873, “Dissecting the sequence determinants for dephosphorylation by the catalytic subunits of phosphatases PP1 and PP2A” (Nature Communications, 2020)
